Measurements published in patent US20190077858A1 (KM BIOLOGICS, published 2019).

Legend:
[1] = molecular target: T1, human IL-18 (MBL Medical & Biological Laboratories, Co., Ltd.) (human, UniProt Q14116 37-193, biotinylated (Biotin-PEAC5-maleimide or Biotin-AC5 Sulfo-OSu) in the streptavidin plate ELISAs and the panning; not labelled in the receptor binding and KG-1 assays); test: ELISA, biotinylated human IL-18 on streptavidin plate, HRP detection antibody, O.D. 450nm/650nm
T1 construct: Bought protein; also called human interleukin-18; biotinylated human IL-18
T1 sequence (looked up): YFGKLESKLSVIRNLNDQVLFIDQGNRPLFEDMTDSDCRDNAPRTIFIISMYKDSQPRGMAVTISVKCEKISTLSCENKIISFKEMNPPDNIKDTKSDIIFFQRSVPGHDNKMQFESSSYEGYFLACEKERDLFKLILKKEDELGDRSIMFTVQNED
Description: The binding activity of the obtained scFv phages, scFv, and IgG prepared by a standard method (conventional method) was evaluated by ELISA. The biotinylated human IL-18 or the biotinylated mouse IL-18 was diluted to 1 μg/mL with PBS (Sigma-Aldrich Corp.), added at 100 μL/well to Streptavidin plates (Nunc), and incubated at room temperature for 2 hours to immobilize the IL-18. After the immobilization, the plates were washed with PBST, and each obtained scFv phage, scFv, or IgG was added at 100 μL/well to the plates and incubated at 37° C. After 1 hour, the plates were washed with PBST, and a detection antibody anti-M13/HRP (GE Healthcare Japan Corp.), anti-His tag/HRP (Bethyl Laboratories, Inc.), anti-V5 tag/HRP (Bethyl Laboratories, Inc.), anti-mouse IgG/HRP (Invitrogen Corp.), or anti-hFc/HRP (Cosmo Bio Co., Ltd., The binding site) was added at 100 μL/well to the plates and incubated at 37° C. After 1 hour, the plates were washed with PBST, and TMB (Sigma-Aldrich Corp.) was added at 100 μL/well to the plates to develop color. After 30 minutes, the reaction was terminated with 2 N sulfuric acid, and the color values (O.D. 450 nm/650 nm) were measured using a microplate reader (Molecular Devices, Inc.).

[2] = molecular target: T1, human IL-18 (MBL Medical & Biological …); test: flow cytometry, blocking: human IL-18 100 ng/mL pre-mixed with the antibody, added to KG-1 cells, bound IL-18 detected with biotinylated 125-2H and streptavidin-PE; blocked partner: native IL-18 receptor [b]
Description: Human IL-18 (MBL Medical & Biological Laboratories, Co., Ltd.) was diluted to 100 ng/mL with 1% BSA-PBS-0.05% NaN₃-2% rabbit serum, mixed with the obtained anti-IL-18 antibody, and incubated at room temperature for 60 minutes. Then, the human IL-18/anti-IL-18 antibody mixed solution was added to KG-1 cells (1×10⁵ cells) cultured by a standard technique (e.g., a medium in which an RPMI1640 medium was supplemented with 10% bovine serum, 2 mM L-glutamine, 50 U/mL penicillin, and 50 μg/mL streptomycin), and reacted on ice. After 30 minutes, the supernatant was removed by centrifugation (1200 rpm, 3 min, 4° C.), and a biotinylated anti-IL-18 antibody 125-2H (MBL Medical & Biological Laboratories, Co., Ltd.) not inhibiting the binding between IL-18 and IL-18 receptor was added thereto and reacted on ice. After 30 minutes, the supernatant was removed by centrifugation (1200 rpm, 3 min, 4° C.), and streptavidin-PE (BD Becton, Dickinson and Company) was added thereto and reacted on ice for 30 minutes. After the reaction, the supernatant was removed by centrifugation (1200 rpm, 3 min, 4° C.), and the KG-1 cells were floated with 1% BSA-PBS-0.05% NaN₃-2% rabbit serum. The fluorescence intensity in the reacted KG-1 cells was measured using FACScan (BD Becton, Dickinson and Company).

- EC50 (read off the curve) [1]: ~0.02 µg/mL
- IC50 (read off the curve) [2]: ~0.2 µg/mL
B1: IgG molecule-type 4A6D (antibody, V domains shown)
VH: EVQLVESGGGLVQPGGSMRLSCTASGFTFDEYAMSWVRQAPGKGLEWVSGISTGGGGTYYADSVEGRFTISRDNSKNTLYLQMNSLRAEDTAVYYCAKPWLSGSRSGDFWGQGTLVTVSS
VL: QSALTQPASVSGSPGQSITISCTGTSSDVGGYNYVSWYQQHPGKAPKLLIYEVSHRPSGVSDRFSGSKSGNTASLTISGLQAEDEADYYCSSFTSSSSLYVFGTGTKLTVL
notes: detected with anti-hFc, so human constant regions; also called human anti-human IL-18 antibody 4A6D
